This assay deals with Tetanus neurotoxin (TeNT) (Clostridium tetani strain Y-IV-3 (WS …, UniProt P04958)). The assay is described as follows: SPR. On the technique in general: Surface plasmon resonance follows binding to a sensor surface in real time, without labels.

Among the data in doi:10.1101/2021.05.24.445390 (bioRxiv, 2021) are Kd values, retold here.

Chain of Tetanus neurotoxin (TeNT) (Clostridium tetani strain Y-IV-3 (P04958 1-457, chain 1 of 2): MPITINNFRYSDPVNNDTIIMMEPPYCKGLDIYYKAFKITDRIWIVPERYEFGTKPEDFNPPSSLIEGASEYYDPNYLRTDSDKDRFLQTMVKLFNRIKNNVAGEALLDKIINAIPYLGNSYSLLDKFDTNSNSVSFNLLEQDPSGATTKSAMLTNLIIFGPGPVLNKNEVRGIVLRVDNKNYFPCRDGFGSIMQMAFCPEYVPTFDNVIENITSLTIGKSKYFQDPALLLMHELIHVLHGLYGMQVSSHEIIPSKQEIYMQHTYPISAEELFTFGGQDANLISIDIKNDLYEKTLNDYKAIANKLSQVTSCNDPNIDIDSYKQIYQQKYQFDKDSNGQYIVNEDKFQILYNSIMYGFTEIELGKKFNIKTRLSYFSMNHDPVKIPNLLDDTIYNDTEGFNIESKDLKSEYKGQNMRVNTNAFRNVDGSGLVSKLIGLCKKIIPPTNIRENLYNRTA
Chain of Tetanus neurotoxin (TeNT) (Clostridium tetani strain Y-IV-3 (P04958 458-1315, chain 2 of 2): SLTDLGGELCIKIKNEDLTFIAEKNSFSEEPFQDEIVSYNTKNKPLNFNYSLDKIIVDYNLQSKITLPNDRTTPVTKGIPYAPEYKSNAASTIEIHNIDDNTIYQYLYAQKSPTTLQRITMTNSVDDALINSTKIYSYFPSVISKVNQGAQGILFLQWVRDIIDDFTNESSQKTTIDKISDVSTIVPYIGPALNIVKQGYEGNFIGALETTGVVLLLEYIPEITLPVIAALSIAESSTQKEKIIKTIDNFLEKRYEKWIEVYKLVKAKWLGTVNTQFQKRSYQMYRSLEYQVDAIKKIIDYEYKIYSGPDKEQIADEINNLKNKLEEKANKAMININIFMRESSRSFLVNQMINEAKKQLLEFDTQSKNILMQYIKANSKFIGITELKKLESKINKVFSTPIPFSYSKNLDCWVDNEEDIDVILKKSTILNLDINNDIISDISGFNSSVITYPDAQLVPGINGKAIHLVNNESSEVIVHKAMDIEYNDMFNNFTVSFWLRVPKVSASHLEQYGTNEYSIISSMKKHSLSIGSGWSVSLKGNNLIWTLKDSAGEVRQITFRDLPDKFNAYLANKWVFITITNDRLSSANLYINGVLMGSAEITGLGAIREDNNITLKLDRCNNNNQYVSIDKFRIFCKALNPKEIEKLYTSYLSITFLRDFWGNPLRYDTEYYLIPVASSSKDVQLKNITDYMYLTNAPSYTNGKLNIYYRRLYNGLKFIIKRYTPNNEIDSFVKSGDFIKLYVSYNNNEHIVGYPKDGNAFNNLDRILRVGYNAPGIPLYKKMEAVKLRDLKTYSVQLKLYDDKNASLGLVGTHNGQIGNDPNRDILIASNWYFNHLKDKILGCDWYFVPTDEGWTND

B1: TT104-Fab (Fab, V domains shown)
VH: QLQLQESGPGLVRPSETLSLTCSVSDDSMGSSTYYWAWIRQPPGKGLEWIGNVYYNGVTYYNSSLESRLTLSIDPSKNQFSLILSSVTAADTAVYYCARQADNWFDPWGQGTLVTVSS
VL: IMMTQSPATLSVSPGERATLSCRASQSVGSDLAWYQQKPGQAPRLLIYGASYRATGIPARFSGGGSGTEFTLTISSMQSEDFAVYYCQQYYNWPPYTFGQGTKVEIK
In general, Kd refers to the constant that tells how readily two partners part at equilibrium. A low value points to higher affinity. As to B1, the Kd was found to be 0.0067 nM.

B2: TT110-Fab (Fab, V domains shown)
VH: QVQLMQSGAEVQKPGASVKVSCQASGFTLNNYYIHWLRQAPGQGFEWMGIFNPSSGTRTYAQKFQGRISMTADASTTTLYMELSGLTSEDAGVYFCARIGGSTYGRLMTYYFDHWGQGTVVAVSS
VL: VLTQGPVTLSVSPGGRGTLSCRASRSISTTLAWYQQKPGQAPRLLIYGASTRATGIPARFTGSGSGTEFTLTISSLQSEDFAVYYCQQYNDWPVTFGQGTQVEVK
B2 gave a Kd of 3 nM.
